In IntAct's records for PubMed 21556048:

Target: ep300_human EP300 (UniProt Q09472)
Sequence (Q09472 whole entry): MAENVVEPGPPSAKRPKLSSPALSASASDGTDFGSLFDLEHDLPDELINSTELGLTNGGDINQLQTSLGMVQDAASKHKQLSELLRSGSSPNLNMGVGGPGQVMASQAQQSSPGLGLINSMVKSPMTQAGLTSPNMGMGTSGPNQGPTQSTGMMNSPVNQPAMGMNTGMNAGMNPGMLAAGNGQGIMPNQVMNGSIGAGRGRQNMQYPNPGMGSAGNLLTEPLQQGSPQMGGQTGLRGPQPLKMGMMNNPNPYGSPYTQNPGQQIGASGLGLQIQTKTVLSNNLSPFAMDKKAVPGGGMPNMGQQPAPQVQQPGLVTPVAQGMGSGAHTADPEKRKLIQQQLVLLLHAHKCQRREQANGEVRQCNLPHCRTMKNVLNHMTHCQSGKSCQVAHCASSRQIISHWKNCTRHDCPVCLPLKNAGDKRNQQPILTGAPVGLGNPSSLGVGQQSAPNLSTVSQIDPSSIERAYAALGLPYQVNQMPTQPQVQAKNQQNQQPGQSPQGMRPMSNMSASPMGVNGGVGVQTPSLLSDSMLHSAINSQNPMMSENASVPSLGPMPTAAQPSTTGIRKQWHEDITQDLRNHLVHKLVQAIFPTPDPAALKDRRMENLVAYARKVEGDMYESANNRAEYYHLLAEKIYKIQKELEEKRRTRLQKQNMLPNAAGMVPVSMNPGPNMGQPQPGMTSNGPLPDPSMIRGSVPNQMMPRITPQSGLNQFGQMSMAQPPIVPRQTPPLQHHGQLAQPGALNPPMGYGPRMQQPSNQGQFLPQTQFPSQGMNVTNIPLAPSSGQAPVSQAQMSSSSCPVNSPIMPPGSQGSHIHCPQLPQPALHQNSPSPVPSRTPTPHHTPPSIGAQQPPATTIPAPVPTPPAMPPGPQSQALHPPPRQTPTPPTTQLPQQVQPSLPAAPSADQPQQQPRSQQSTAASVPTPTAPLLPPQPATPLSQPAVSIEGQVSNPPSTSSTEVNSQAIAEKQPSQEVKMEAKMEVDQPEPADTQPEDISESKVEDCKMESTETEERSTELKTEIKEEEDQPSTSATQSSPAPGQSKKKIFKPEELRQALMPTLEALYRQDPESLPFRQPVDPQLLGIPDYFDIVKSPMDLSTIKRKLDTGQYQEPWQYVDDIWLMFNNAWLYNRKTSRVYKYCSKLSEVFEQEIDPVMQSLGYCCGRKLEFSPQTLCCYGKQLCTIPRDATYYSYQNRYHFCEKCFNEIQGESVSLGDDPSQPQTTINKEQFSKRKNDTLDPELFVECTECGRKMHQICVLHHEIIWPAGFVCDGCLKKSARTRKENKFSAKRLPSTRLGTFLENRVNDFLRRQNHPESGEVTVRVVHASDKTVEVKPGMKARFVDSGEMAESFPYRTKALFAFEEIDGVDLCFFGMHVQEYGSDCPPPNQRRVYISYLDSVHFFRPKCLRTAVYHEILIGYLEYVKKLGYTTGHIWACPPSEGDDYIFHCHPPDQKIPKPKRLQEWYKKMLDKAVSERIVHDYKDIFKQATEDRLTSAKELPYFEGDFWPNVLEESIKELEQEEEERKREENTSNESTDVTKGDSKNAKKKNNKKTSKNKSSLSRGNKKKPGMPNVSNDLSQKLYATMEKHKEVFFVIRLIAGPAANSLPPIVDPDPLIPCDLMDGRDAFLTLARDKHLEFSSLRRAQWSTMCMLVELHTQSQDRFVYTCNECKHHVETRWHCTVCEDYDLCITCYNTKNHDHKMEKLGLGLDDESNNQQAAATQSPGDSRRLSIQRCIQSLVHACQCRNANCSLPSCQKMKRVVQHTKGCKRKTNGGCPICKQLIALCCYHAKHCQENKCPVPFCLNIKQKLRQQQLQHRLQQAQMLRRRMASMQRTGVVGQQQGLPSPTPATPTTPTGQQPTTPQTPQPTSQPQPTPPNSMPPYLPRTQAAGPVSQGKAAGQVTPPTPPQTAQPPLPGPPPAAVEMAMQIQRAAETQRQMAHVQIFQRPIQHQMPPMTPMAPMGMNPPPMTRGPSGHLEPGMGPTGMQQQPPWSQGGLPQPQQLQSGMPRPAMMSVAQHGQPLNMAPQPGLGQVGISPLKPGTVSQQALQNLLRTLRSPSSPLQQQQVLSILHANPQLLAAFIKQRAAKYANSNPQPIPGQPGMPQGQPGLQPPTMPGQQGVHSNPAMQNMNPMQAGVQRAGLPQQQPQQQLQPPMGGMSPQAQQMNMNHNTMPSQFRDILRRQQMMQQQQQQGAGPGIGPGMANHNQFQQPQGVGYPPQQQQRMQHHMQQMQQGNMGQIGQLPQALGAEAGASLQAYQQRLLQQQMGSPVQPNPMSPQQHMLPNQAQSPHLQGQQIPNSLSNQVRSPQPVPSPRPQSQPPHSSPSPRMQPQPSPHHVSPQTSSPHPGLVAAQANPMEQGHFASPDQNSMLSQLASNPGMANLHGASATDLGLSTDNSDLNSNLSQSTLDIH

Sequence of Myocyte-specific enhancer factor 2C (Homo sapiens), Q06413 T80A (Q06413 whole entry T80A): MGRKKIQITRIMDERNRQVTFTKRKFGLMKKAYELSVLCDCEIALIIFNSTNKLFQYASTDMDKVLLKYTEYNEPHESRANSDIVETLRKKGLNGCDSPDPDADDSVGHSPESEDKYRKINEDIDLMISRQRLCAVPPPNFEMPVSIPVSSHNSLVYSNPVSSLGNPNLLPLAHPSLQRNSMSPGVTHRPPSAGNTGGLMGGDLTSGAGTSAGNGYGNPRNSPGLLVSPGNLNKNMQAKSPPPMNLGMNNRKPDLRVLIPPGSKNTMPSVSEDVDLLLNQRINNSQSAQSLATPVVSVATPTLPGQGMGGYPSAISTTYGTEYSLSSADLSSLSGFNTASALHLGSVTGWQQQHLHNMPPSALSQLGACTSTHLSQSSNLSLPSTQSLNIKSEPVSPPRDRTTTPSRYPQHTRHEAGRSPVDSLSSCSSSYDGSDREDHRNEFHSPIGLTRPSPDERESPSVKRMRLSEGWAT

Myocyte-specific enhancer factor 2C (Homo sapiens), Q06413 T80A
effect of a mutation on the interaction: decreasing interaction
